Data set [1] deals with the molecule itself. As to the kind of experiment: AUC.
For data set [2], the target named is T1, LHK-Exo (Laribacter hongkongensis HLHK9, UniProt C1D7P6 1-203).
T1 sequence: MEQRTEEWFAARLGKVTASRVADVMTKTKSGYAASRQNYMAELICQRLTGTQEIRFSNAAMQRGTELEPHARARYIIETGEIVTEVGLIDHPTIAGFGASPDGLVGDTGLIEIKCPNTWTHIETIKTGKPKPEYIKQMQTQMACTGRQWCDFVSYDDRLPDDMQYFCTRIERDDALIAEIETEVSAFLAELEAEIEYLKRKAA
Briefly: X-ray crystallography.

Two molecules from publication PMC3239189 (Nucleic Acids Research, 2011) can be followed below.

B1: LHK-Exo (alkaline exonuclease from Laribacter hongkongensis HLHK9, LHK_01497) (enzyme, UniProt C1D7P6 1-203, looked up)
chain: T1 sequence
In general, stoichiometry N refers to the number of molecules, sites or subunits per partner or assembly. B1: the “stoichiometry N” value in data set [1] was found to be 3.

As for TTTTT (ssDNA, 5'-phosphate) [5'-PO4-(dT)5], the binding result in data set [2] is “binds”.
